# Results from patent publication US9915657B2, “Lateral flow device for diagnosing microbial infections” (THE JOHNS HOPKINS UNIVERSITY, priority 2009, dated 2018).
# B1: MAb 838: IgMκ monoclonal antibody to galactofuranose-containing GM; VH SEQ ID NO:7, VL SEQ ID NO:8 (antibody, listed as Mus musculus, V domains shown)
# VH: EVQLEESLRLSCATSGFTFSDFYMEWVRQPPGKRLEWIAASRNKANDYTTEYSASVKGRFFVSRDTSQSILYLQMNALRAEDTAIYYCARDVMITTGDWYFDVWGAGTTVTVSS
# VL: DILMTQSQKFMSTSVGDRVSVTCKASQNVGTNVAWYQQKPGQSPKALIYSASYQYSGVPDRFTGSGSGTDFTLTISNVQSEDLAEYFCQQFNSYHVRLGDKVGIKT
# modifications: (1)..(342) 838.9.4 VH (B4B); (1)..(318) 838.9.4. VL (p6)
# Experiments:
# [1] = rabbit model; within 24 hours of intravenous injection; cited from earlier work
# [2] = Competition ELISA, relative affinities of GM-binding MAbs; design: species or system Aspergillus fumigatus
# Experimental: FIG. 9 is a graph showing the relative affinities of GM-binding MAbs. Measurements were made by competition ELISA using soluble ethanol-precipitated culture filtrate. Percent of maximal binding is shown;
# The relative affinities of the GM-binding MAbs were determined by competition ELISA. […] The % of maximal binding is shown in (FIG. 9). […] These values are similar to those reported for other polysaccharide-binding MAbs.
# Competition ELISAs were done using each combination of the MAb pairs to confirm that the MAbs were binding to the same epitope and their relative avidities for GM. Biotinylation of the second MAb allowed the use of alkaline phosphatase-conjugated streptavidin for detection and was done by linkage of anion exchange-purified MAbs to sulfo-NHS-LC biotin. Competition among each of the MAb pairs was observed, supporting binding to similar epitopes or the presence of steric hindrance. […] The MAb 838-producing hybridoma manufactures relatively low concentrations of MAb, making use of this cell line difficult.
Molecule,GM excreted in the urine [1],"Kd ([2]; calculated from competition ELISA, read-out: dissociation constant (Kd))","affinity for GM, higher than the other three MAbs ([2]; competition ELISA)","concentration required for competition, lower than for the other MAbs ([2]; competition ELISA between MAb pairs)"
Galactomannan [GM],35%,–,–,–
B1,–,100 nM,approximately 10 fold,approximately 10 fold
